Article PMC8976148 (2022)

B1: YAP^50-171 (domain or fragment)
chain: AGHQIVHVRGDSETDLEALFNAVMNPKTANVPQTVPMRLRKLPDSFFKPPEPKSHSRQASTDAGTAGALTPQHVRAHSSPASLQLGAVSPGTLTPTGVVSGPAATPTAQHLRQSSFEIPDDV
B2: YAP^50-171 with a cysteine inserted at position 172 (domain or fragment)
chain: AGHQIVHVRGDSETDLEALFNAVMNPKTANVPQTVPMRLRKLPDSFFKPPEPKSHSRQASTDAGTAGALTPQHVRAHSSPASLQLGAVSPGTLTPTGVVSGPAATPTAQHLRQSSFEIPDDVC

Molecular target: T1, Biotinylated N-Avitagged-TEAD4^217-434 (UniProt Q15561 217-434, biotin (biotinylated Avitag))
T1 chain: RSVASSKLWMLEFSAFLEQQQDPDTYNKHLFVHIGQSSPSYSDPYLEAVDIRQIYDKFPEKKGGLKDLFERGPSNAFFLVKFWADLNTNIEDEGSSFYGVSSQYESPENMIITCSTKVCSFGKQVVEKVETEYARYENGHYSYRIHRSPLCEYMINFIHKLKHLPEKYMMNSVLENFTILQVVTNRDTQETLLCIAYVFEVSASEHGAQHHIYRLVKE
Assay: FRET

Binder	IC50 [nM]
B1	11
B2	7
